In US20160031999A1 (CSL, published 2016):

T1: human IL-11Rα (form used in the assay not stated) (human, UniProt Q14626 23-363, limits assumed)
T1 construct: also called hIL-11R; hIL-11Rα
T1 sequence: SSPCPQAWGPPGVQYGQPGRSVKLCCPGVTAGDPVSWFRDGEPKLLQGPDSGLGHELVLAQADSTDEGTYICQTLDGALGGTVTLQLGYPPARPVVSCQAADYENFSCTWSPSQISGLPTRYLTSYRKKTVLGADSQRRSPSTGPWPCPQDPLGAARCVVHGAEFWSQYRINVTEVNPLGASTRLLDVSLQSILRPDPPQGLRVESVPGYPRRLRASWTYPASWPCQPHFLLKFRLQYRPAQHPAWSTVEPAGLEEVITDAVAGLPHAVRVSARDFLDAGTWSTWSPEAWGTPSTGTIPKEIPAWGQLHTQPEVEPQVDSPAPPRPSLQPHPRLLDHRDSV

T2: human IL-11Rα on transfected cells (human, UniProt Q14626 23-422)
T2 sequence: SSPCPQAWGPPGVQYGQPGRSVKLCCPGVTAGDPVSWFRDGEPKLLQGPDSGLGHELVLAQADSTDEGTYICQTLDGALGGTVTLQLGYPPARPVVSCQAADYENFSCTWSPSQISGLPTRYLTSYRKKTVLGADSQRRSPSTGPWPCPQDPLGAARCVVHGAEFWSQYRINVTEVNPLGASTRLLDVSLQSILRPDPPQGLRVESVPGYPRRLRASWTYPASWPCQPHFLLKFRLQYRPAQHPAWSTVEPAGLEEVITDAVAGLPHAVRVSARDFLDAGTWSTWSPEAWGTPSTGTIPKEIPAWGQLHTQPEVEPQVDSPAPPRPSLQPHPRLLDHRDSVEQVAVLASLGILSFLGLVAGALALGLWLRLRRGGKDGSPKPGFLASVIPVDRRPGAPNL


Experiments:
[1] = biological target: T1, human IL-11Rα (form used in the assay …); assay: Biacore, pH 8.5, 37°C; some heterogeneity observed, an accurate KD difficult to determine
[2] = biological target: T2, human IL-11Rα on transfected cells; assay: cell-based or functional assay
[3] = biological target: T1, human IL-11Rα (form used in the assay …); assay: Biacore, pH 8.5, 37°C

| Kd [1] [nM] | Fold increase in potency relative to 8E2 [2] [fold] | IC50 [2] [µg/mL] | Kd [3] [nM] | Binder |
| --- | --- | --- | --- | --- |
| > 9 | 1.2 | 0.51 | – | hu8E2-TS-213 (antibody, V domains shown) VH: EVQLLESGGGLVQPGGSLRLSCAASGFTFSWYSMTWVRQAPGKGLEWVSSIVPSGGHTQYADSVKGRFTISRDNSKNTLYLQMNSLRAEDTAVYYCAKGPGWGQFAVWGRGTLVTVSS VL: not shown |
| – | 1.1 | 0.33 | 6.01 | hu8E2-TS-322 (antibody, V domains shown) VH: EVQLLESGGGLVQPGGSLRLSCAASGFTFSWYSMTWVRQAPGKGLEWVSSIVPSGGHTQYADSVKGRFTISRDNSKNTLYLQMNSLRAEDTAVYYCAKGPGWGSFDLWGRGTLVTVSS VL: DIQMTQSPSSLSASVGDRVTITCQASQDVHHYMEWYQQKPGKAPKLLIYDASNLQTGVPSRFSGSGSGTDFTFTISSLQPEDIATYYCQQYDNLSPTFGPGTKVDIK |
| – | 0.7 | 0.51 | 5.56 | hu8E2-TS-313 (antibody, V domains shown) VH: EVQLLESGGGLVQPGGSLRLSCAASGFTFSWYSMTWVRQAPGKGLEWVSSIVPSGGHTQYADSVKGRFTISRDNSKNTLYLQMNSLRAEDTAVYYCAKGPGWGSFDLWGRGTLVTVSS VL: DIQMTQSPSSLSASVGDRVTITCQASQDVSGYVEWYQQKPGKAPKLLIYDASNLQTGVPSRFSGSGSGTDFTFTISSLQPEDIATYYCQQYDNLSPTFGPGTKVDIK |
